Test results reported in the Immune Epitope Database (IEDB).

What was measured:
Experiment in all cases: IEDB peptide-MHC binding, purified MHC/competitive/fluorescence; filed as Kd, often an IC50 or EC50 that approximates it; ≥ and ≤ were set here for values at or beyond the usual limits of such assays
Details in all cases: source organism: Rickettsia bellii OSU 85-389
HLA-A*01:01 = target: HLA-A*01:01
HLA-A*11:01 = target: HLA-A*11:01
HLA-B*07:02 = target: HLA-B*07:02
HLA-B*08:01 = target: HLA-B*08:01
HLA-B*58:01 = target: HLA-B*58:01
HLA-A*30:02 = target: HLA-A*30:02
HLA-B*27:05 = target: HLA-B*27:05
HLA-B*40:01 = target: HLA-B*40:01

Measured: Kd

EDFEIFYNL
≥ 5 µM: all assays above
